{"source": "patent US20260000780A1", "about": "“B-LYMPHOCYTE SPECIFIC AMATOXIN ANTIBODY CONJUGATES” (priority 2021, published 2026)", "key": {"[1]": {"system": "Raji cell line (CD37-positive)", "test": "FACS binding / antibodies bound per cell (BD Quantibrite PE), Raji", "set-up": "species or system human", "experimental": "(§1) Binding of the anti-CD37 monoclonal antibody chHH1-HDP-LALA-D265C to the CD37-positive B-cell leukemia (B-CLL) cell lines MEC-1 and MEC-2 as well as to the human Burkitt lymphoma cell lines Raji and Ramos and to the human B-cell precursor leukemia cell line Nalm-6, which is known to be CD37-negative, were tested by fluorescence-activated cell sorting (FACS) analysis.\n(§2) In order to estimate antibodies bound per cell (ABC) by flow cytometry, BD Quantibrite PE tubes (Becton Dickinson) were used, which were run at the same instrument settings as the assay, so that the FL2 axis can be converted into the number of PE molecules bound per cell. By using known ratios of PE to antibodies, PE molecules per cell can then be converted to the number of antibodies per cell (Iyer et al. 1997)."}, "[2]": {"system": "MEC-1 cell line (CD37-positive)", "test": "FACS binding / antibodies bound per cell (BD Quantibrite PE), MEC-1", "experimental": "as §1, §2"}, "[3]": {"system": "MEC-2 cell line (CD37-positive)", "test": "FACS binding / antibodies bound per cell (BD Quantibrite PE), MEC-2", "experimental": "as §1, §2"}, "[4]": {"system": "Ramos cell line (CD37-positive)", "test": "FACS binding / antibodies bound per cell (BD Quantibrite PE), Ramos", "set-up": "species or system human", "experimental": "as §1, §2"}, "[5]": {"system": "Nalm-6 cell line (CD37-negative)", "test": "FACS binding / antibodies bound per cell (BD Quantibrite PE), Nalm-6", "set-up": "species or system human", "experimental": "as §1, §2"}, "CD37": {"molecular_target": "T1, CD37 (Homo sapiens, UniProt P11049)", "T1 construct": "A CD37 construct comprising amino acids Ala 113 to Asn 240, expressed in HEK293 cells; Fc fusion tag (Thr 106 to Lys 330); host or cells: HEK293", "T1 sequence (P11049 113-240)": "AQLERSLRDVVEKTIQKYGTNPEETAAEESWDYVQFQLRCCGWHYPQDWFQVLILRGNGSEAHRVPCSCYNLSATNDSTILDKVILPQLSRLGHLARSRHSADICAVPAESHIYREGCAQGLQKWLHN", "test": "Biacore binding assay (surface-plasmon resonance)", "details": "CD37 construct Ala 113 to Asn 240 with Fc fusion tag, 31.25 nM to 500 nM", "experimental": "Binding of the monoclonal antibody chHH1-HDP-LALA-D265C to CD37 was confirmed by surface-plasmon resonance (Biacore) interaction analysis. 0.1 μM chHH1-HDP-LALA-D265C was captured using anti-Fab capture (FAB2G) biosensors. Alternatively, biotinylated monoclonal antibody chHH1-HDP-LALA-D265C was captured by streptavidin (SA) sensors. A CD37 construct comprising amino acids Ala 113 to Asn 240, expressed in HEK293 cells with an Fc fusion tag moiety (Thr 106 to Lys 330), was added to the sensor at concentrations of 31.25 nM to 500 nM (1:2 dilution steps), and binding of the CD37 construct was assessed."}, "Raji-Luc tumor xenograft": {"system": "Raji-Luc tumor xenograft", "test": "Disseminated Raji-Luc tumor xenograft model", "type": "in vivo, CB17 Scid mice", "details": "3.75 mg/kg (unconjugated antibody); day 89 after treatment", "experimental": "Cytotoxic efficacy studies in vivo were performed using various anti-CD37 antibody amatoxin conjugates in a disseminated Raji-Luc tumor xenograft model over 89 days of treatment.\nTumor cell inoculation was done on day-3 by i.v. injection of 2.5×10^6 Raji-Luc cells in CB17 Scid mice. Treatment was performed on day 0 by single dose i.v. injection at maximum tolerable dose (MTD) of 1/16 and MTD of 1/64 doses of cynomolgus MTD, respectively. Readout of the study was body weight, bioluminescence and survival. Results are shown in FIG. 10 (body weight), FIG. 11 (bioluminescence) and FIG. 12 (survival) at day 89 after treatment. All groups treated with conjugate gained body weight as normal, in contrast to the control group."}, "cynomolgus CD37": {"system": "cynomolgus CD37", "test": "Cross reactivity with cynomolgus PBMCs by flow cytometry", "type": "binding", "experimental": "Cross reactivity of the anti-CD37 chHH1-HDP-LALA-D265C with cynomolgus peripheral blood mononuclear cells (PBMCs) was assessed by flow cytometry. As control, human PBMCs were stained using the same set of antibodies. FACS analysis was done according to a standard protocol. In brief: PBMCs were resuspend in 300 μL staining medium (3.3×10^5 cells/50 μl staining medium). 50 μl cell suspension for each sample (=3.3×10^5 cells per sample) were piptted into one well of an U-well plate. 50 μl of pre-diluted isotype and antibody solutions were added to the samples in each well and incubated for 30 min on ice, followed by the addition of 100 μl ice-cold PBS and centrifugation at 4° C., 300 g, 6 min. The resulting supernatant was discarded and cells were washed with 200 μl ice-cold PBS, pH 7.4 followed by centrifugation at 4° C., 300 g, 6 min. The wash step was repeated once. The supernatant was discarded and cells resuspended in 100 μl of the secondary antibody solution. For the untreated sample (control) 100 μl staining medium were used. Cells were incubated for 30 min on ice protected from light. 100 μl ice-cold PBS were added and cells were centrifuge at 4° C., 300 g, 6 min. The supernatant was discarded and cells were washed twice with 200 μl ice-cold PBS, pH 7.4 and centrifuged at 4° C., 300 g, 6 min. […]"}}, "data": [{"molecule": "chHH1-HDP-LALA-D265C: Unconjugated anti-CD37 antibody, heavy chain SEQ ID No. 11 (234Ala, 235Ala, 265Cys), light chain SEQ ID No. 12 (antibody, Heavy chain of chHH1-HDP-LALA-D265C comprising amino acid substitutions L235A, L235A and D265C; Light chain of chHH1-HDP, chHH1-HDP-265C, chHH1-HDP-LALA-D265C, respectively) heavy: EIQLQQSGPELVKPGASVKVSCKASGYSFTDYNMYWVKQSHGKSLEWIGYIDPYNGDTTYNQKFKGKATLTVDKSSSTAFIHLNSLTSEDSAVYYCARSPYGHYAMDYWGQGTSVTVSSASTKGPSVFPLAPSSKSTSGGTAALGCLVKDYFPEPVTVSWNSGALTSGVHTFPAVLQSSGLYSLSSVVTVPSSSLGTQTYICNVNHKPSNTKVDKKVEPKSCDKTHTCPPCPAPEAAGGPSVFLFPPKPKDTLMISRTPEVTCVVVCVSHEDPEVKFNWYVDGVEVHNAKTKPREEQYNSTYRVVSVLTVLHQDWLNGKEYKCKVSNKALPAPIEKTISKAKGQPREPQVYTLPPSREEMTKNQVSLTCLVKGFYPSDIAVEWESNGQPENNYKTTPPVLDSDGSFFLYSKLTVDKSRWQQGNVFSCSVMHEALHNHYTQKSLSLSPGK light: DIVMTQSHKLLSTSVGDRVSITCKASQDVSTAVDWYQQKPGQSPKLLINWASTRHTGVPDRFTGSGSGTDYTLTISSMQAEDLALYYCRQHYSTPFTFGSGTKLEIKRTVAAPSVFIFPPSDEQLKSGTASVVCLLNNFYPREAKVQWKVDNALQSGNSQESVTEQDSKDSTYSLSSTLTLSKADYEKHKVYACEVTHQGLSSPVTKSFNRGEC", "values": [{"measurement": "binding by FACS analysis", "setting": "[1]", "result": "bind strongly"}, {"measurement": "antibodies bound per cell (ABC) value", "setting": "[1]; flow cytometry", "result": "32,500"}, {"measurement": "binding by FACS analysis", "setting": "[2]", "result": "bind strongly"}, {"measurement": "antibodies bound per cell (ABC) value", "setting": "[2]; flow cytometry", "result": "33,004"}, {"measurement": "binding by FACS analysis", "setting": "[3]", "result": "bind strongly"}, {"measurement": "antibodies bound per cell (ABC) value", "setting": "[3]; flow cytometry", "result": "137,200"}, {"measurement": "binding by FACS analysis", "setting": "[4]", "result": "bind strongly"}, {"measurement": "antibodies bound per cell (ABC) value", "setting": "[4]; flow cytometry", "result": "31,500"}, {"measurement": "binding by FACS analysis", "setting": "[5]; Nalm-6 (CD37-negative)", "result": "No binding was detected"}, {"measurement": "antibodies bound per cell (ABC) value", "setting": "[5]; Nalm-6, flow cytometry", "result": 42}, {"measurement": "binding to CD37 by surface-plasmon resonance (Biacore)", "setting": "CD37", "result": "confirmed"}, {"measurement": "Alive animals", "setting": "Raji-Luc tumor xenograft", "result": "0/10"}, {"measurement": "specific binding to cynomolgus CD37", "setting": "cynomolgus CD37", "result": "does not exhibit specific binding"}]}]}
